Test results published in patent US20120100141A1 (GlaxoSmithKline, published 2012).

Tests used:
Assay in all cases: melanophore functional bioassay, transfected cells (data not shown)
[1] = molecular target: T1, Mouse NPY5R (mouse, UniProt O70342 1-466)
T1 construct: whole, on cells; also called NPY5R (mouse)
T1 sequence (looked up): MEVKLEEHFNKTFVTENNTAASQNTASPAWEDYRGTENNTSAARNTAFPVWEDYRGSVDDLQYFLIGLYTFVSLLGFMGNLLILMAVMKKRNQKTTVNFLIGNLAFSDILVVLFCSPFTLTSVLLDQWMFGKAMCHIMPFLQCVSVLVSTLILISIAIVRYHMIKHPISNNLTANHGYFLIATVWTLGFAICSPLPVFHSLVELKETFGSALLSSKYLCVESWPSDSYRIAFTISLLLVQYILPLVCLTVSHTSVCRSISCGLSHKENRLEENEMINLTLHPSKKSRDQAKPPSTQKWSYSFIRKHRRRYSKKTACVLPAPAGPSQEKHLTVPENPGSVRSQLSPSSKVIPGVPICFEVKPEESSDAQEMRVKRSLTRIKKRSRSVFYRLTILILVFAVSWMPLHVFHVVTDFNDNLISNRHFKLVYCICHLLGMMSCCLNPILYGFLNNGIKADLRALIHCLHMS
Experimental: (§1) For assaying purposes cells were washed, trypsinized and resuspended in 0.7×EPG PBS at a concentration of 15×10⁶ cells per ml. 800 μl of cells were gently mixed with 20-40 μg of cDNA and incubated on ice for 20 minutes. […] After 2 hours they were placed in a sealed container in the incubator overnight (25° C., 0% CO2). The following day media was aspirated and 25 μl MAB (Melanophore Assay Buffer) containing 1% DMSO and 10 nM melatonin was added to each well. Cells were incubated for one hour and basal transmittance was measured on a SLT Spectra plate reader at 620 nm. Next, a dilution series (12 point series using 3 fold dilution intervals in MAB) containing 25 μl of a 2× concentration peptides and standards were added directly to each well. Standards included melatonin 10 nM, MSH 200 nM and MAB and were used to establish assay system Minimum, Maximum, and basal response levels, respectively. Following addition of peptides and standards, plates were incubated for 1 hour and transmittance measured as before. Data was analyzed using Robosage (version 7.3.2) by calculating (1−Tf/Ti) where Ti is initial baseline read, and Tf is the response read.

[2] = molecular target: T2, Human NPY5R (human, UniProt Q15761 1-445)
T2 construct: whole, on cells; also called NPY5R (human)
T2 sequence (looked up): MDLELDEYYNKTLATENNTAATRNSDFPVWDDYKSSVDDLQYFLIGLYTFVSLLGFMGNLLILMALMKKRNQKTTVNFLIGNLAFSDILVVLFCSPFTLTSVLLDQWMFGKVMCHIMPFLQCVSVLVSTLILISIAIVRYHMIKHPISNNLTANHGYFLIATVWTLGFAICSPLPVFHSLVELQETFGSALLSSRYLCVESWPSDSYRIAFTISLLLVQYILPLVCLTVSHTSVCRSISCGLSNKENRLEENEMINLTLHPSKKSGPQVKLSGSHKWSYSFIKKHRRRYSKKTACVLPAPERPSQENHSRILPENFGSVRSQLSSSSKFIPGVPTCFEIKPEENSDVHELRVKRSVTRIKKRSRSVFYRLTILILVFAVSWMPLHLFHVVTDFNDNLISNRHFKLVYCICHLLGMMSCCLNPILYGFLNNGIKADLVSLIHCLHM
Experimental: as §1

[3] = molecular target: T3, Mouse NPY2R (mouse, UniProt P97295 1-381)
T3 construct: whole, on cells; also called NPY2R (mouse)
T3 sequence (looked up): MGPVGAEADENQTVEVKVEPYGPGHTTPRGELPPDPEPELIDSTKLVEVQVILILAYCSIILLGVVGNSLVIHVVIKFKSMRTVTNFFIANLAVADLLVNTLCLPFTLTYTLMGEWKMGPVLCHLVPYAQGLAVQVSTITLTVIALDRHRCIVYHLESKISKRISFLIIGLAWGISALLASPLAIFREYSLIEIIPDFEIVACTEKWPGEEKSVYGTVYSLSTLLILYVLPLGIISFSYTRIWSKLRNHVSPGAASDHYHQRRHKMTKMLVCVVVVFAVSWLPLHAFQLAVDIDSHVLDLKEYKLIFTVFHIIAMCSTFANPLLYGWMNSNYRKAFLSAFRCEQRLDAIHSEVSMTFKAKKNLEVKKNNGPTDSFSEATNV
Experimental: as §1

[4] = molecular target: T4, Mouse NPY4R (mouse, UniProt Q61041 1-375)
T4 construct: whole, on cells; also called NPY4R (mouse)
T4 sequence (Q61041 whole entry): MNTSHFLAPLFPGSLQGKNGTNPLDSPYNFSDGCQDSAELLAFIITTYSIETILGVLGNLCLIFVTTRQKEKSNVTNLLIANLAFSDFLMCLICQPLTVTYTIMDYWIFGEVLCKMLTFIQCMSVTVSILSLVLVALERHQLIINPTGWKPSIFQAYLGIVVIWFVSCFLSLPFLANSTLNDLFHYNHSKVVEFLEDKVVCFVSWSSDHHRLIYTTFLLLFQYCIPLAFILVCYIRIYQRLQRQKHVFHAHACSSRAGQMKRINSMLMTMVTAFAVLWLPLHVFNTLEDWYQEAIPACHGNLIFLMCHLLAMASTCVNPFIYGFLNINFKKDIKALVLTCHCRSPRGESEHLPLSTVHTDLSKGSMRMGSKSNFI
Experimental: as §1

[5] = molecular target: T5, Mouse NPY1R (mouse, UniProt Q04573 1-382)
T5 construct: whole, on cells; also called NPY1R (mouse)
T5 sequence (looked up): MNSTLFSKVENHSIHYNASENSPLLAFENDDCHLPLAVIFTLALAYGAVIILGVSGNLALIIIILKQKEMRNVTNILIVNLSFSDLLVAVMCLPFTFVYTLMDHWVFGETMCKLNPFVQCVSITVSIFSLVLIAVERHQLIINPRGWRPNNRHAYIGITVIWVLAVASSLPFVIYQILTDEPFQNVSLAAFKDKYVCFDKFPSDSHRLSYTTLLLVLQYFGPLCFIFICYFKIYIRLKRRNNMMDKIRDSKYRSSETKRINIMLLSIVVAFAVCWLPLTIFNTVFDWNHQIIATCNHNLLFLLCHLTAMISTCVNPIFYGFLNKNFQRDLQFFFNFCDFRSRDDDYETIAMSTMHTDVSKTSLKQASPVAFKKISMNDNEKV
Experimental: as §1

[6] = molecular target: T6, Human NPY2R (human, UniProt P49146 1-381)
T6 construct: whole, on cells; also called NPY2R (human)
T6 sequence (looked up): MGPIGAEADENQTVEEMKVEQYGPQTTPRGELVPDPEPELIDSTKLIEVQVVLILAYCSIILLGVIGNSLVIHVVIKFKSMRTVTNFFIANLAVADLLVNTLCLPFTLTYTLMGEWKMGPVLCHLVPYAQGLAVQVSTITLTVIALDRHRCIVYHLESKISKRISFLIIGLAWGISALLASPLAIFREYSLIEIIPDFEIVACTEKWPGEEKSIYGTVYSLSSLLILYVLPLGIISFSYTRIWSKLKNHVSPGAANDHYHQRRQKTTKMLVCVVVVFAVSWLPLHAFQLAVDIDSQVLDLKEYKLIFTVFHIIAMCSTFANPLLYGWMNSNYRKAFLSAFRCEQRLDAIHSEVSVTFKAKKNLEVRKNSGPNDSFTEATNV
Experimental: as §1

[7] = molecular target: T7, Human NPY1R (human, UniProt P25929 1-384)
T7 construct: whole, on cells; also called NPY1R (human)
T7 sequence (looked up): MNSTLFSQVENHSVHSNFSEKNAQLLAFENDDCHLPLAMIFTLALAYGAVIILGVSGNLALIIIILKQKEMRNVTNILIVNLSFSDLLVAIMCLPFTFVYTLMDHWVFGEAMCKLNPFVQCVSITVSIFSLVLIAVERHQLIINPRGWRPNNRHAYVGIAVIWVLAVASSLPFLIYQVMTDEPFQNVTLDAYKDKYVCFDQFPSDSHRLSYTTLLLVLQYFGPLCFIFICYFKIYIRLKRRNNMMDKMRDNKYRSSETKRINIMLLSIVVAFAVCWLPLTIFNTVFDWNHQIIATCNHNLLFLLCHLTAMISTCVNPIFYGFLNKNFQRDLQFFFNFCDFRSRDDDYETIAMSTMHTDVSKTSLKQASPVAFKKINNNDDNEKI
Experimental: as §1

[8] = molecular target: T8, Human NPY4R (human, UniProt P50391 1-375)
T8 construct: whole, on cells; also called NPY4R (human)
T8 sequence (P50391 whole entry): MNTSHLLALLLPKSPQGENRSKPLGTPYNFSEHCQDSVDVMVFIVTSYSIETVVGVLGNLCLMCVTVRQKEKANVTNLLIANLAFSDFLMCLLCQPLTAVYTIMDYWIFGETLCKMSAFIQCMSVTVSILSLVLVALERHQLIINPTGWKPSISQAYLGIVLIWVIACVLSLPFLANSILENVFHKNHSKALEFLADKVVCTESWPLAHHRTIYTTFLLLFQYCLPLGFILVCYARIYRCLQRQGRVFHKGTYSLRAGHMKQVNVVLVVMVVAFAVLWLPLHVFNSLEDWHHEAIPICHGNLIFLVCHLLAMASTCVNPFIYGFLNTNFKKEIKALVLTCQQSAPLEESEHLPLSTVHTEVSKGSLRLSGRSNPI
Experimental: as §1

Measured: binding result

B1: PYY (3-36) DOM7h-14-10 (R108C) AlbudAb peptide conjugate DMS7605 (other)
chain: DIQMTQSPSSLSASVGDRVTITCRASQWIGSQLSWYQQKPGKAPKLLIMWRSSLQSGVPSRFSGSGSGTDFTLTISSLQPEDFATYYCAQGLRHPKTFGQGTKVEIKC
peptide: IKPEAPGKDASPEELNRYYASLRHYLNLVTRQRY
modifications: C-terminal amide; lysine at position 10 derivatised with the 4 repeat PEG linker to the dAb cysteine; free C-terminal cysteine (R108C) coupled through maleimide to a 4 repeat PEG linker that is attached to the lysine at position 10 of the PYY peptide
notes: Chemical conjugate, not a genetic fusion; The dAb was made in E. coli, the peptide and PEG linker by chemical synthesis; also called DMS7167:PYY3-36; PYY(3-36) AlbudAb
binds: all assays above
